The subject of series [1] is PNGM-1. Conditions: read-out: PNGM-1^a; 50 mM MES pH 7.0, 30 °C, 100 μM ZnCl2, 100 μg/ml BSA; footnote: identical to data from authors' earlier reference 13; cited from earlier work.
Target sequence in this assay (Z9H0G7B495 1-372 limits assumed): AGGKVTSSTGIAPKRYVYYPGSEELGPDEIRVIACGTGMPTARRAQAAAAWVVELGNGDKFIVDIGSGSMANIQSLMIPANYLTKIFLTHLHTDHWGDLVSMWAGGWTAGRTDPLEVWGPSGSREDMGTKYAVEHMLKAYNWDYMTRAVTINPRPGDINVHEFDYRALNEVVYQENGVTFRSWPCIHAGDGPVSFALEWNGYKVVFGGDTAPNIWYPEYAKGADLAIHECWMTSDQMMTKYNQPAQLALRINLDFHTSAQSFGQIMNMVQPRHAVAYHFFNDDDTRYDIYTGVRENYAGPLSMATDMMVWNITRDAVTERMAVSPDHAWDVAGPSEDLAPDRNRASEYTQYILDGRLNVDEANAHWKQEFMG
The test system of series [2] is PNGM-1.
Target sequence in this assay (Z9H0G7B495 1-372 H256A limits assumed): as the sequence (Z9H0G7B495 1-372 limits assumed) above, with H256A counted along it
The subject of series [3] is PNGM-1. Conditions: read-out: PNGM-1^a; 50 mM MES pH 7.0, 30 °C, 100 μM ZnCl2, 100 μg/ml BSA; footnote: identical to data from authors' earlier reference 13; cited from earlier work. The source holds these as a separate data set.
Target sequence in this assay (Z9H0G7B495 1-372 limits assumed): as the sequence (Z9H0G7B495 1-372 limits assumed) above
For series [4], the system named is PNGM-1. The source holds these as a separate data set.
Target sequence in this assay (Z9H0G7B495 1-372 H256A limits assumed): as the sequence (Z9H0G7B495 1-372 limits assumed) above, with H256A counted along it
The subject of series [5] is PNGM-1. This is another data set of the same source.
Target sequence in this assay (Z9H0G7B495 1-372 H256A limits assumed): as the sequence (Z9H0G7B495 1-372 limits assumed) above, with H256A counted along it
Series [6] relates to PNGM-1. Conditions: read-out: PNGM-1^a; 50 mM MES pH 7.0, 30 °C, 100 μM ZnCl2, 100 μg/ml BSA; footnote: identical to data from authors' earlier reference 13; cited from earlier work. The source holds these as a separate data set.
Target sequence in this assay (Z9H0G7B495 1-372 limits assumed): as the sequence (Z9H0G7B495 1-372 limits assumed) above
Series [7] relates to PNGM-1. The conditions noted are these: read-out: PNGM-1^a; 50 mM MES pH 7.0, 30 °C, 100 μM ZnCl2, 100 μg/ml BSA; footnote: identical to data from authors' earlier reference 13; cited from earlier work. The source holds these as a separate data set.
Target sequence in this assay (Z9H0G7B495 1-372 limits assumed): as above
For series [8], the system named is PNGM-1. Conditions: read-out: PNGM-1^a; 50 mM MES pH 7.0, 30 °C, 100 μM ZnCl2, 100 μg/ml BSA; footnote: identical to data from authors' earlier reference 13; cited from earlier work. The source holds these as a separate data set.
Target sequence in this assay (Z9H0G7B495 1-372 limits assumed): as above
Series [9] deals with PNGM-1. Conditions: read-out: PNGM-1^a; 50 mM MES pH 7.0, 30 °C, 100 μM ZnCl2, 100 μg/ml BSA; footnote: identical to data from authors' earlier reference 13; cited from earlier work. The source holds these as a separate data set.
Target sequence in this assay (Z9H0G7B495 1-372 limits assumed): as above
Series [10] has as its system C[C@@H](O)[C@H]1C(=O)N2C(C(=O)O)=C(S[C@@H]3CN[C@H](C(=O)Nc4cccc(C(=O)O)c4)C3)[C@H](C)[C@H]12. Briefly: purified protein. Conditions: 50 mM MES pH 7.0, 30 °C, 100 μM ZnCl2, 100 μg/ml BSA.
Series [11] relates to C[C@@H](O)[C@H]1C(=O)N2C(C(=O)O)=C(SCCN=CN)C[C@H]12. Description: purified protein. Conditions: 50 mM MES pH 7.0, 30 °C, 100 μM ZnCl2, 100 μg/ml BSA.
The subject of series [12] is C[C@@H](O)[C@H]1C(=O)N2C(C(=O)O)=C(S[C@@H]3CN[C@H](C(=O)N(C)C)C3)[C@H](C)[C@H]12. Description: purified protein. The conditions noted are these: 50 mM MES pH 7.0, 30 °C, 100 μM ZnCl2, 100 μg/ml BSA.

Read-outs that look alike come from different tables or passages of the source.

In the case of `CO/N=C(\C(=O)N[C@@H]1C(=O)N2C(C(=O)O)=C(COC(C)=O)CS[C@H]12)c1csc(N)n1` [cefotaxime], the Km in the series on PNGM-1 [1] was 3.3 ± 0.1 µM; in the series with PNGM-1 [2], 3.1 ± 0.1 µM.

In the case of `CO[C@@]1(NC(=O)Cc2cccs2)C(=O)N2C(C(=O)O)=C(COC(N)=O)CS[C@@H]21` [cefoxitin], the Km is 4.3 ± 0.1 µM in the series on PNGM-1 [3] and 3.8 ± 0.1 µM with PNGM-1 [4].

As for `CC(C)(O/N=C(\C(=O)N[C@@H]1C(=O)N2C(C(=O)[O-])=C(C[n+]3ccccc3)CS[C@H]12)c1csc(N)n1)C(=O)O` [ceftazidime], the Km with PNGM-1 [5] was 15.4 ± 0.1 µM; in the series with PNGM-1 [6], 15.9 ± 0.2 µM.

For the compound `C[C@@H](O)[C@H]1C(=O)N2C(C(=O)O)=C(S[C@@H]3CN[C@H](C(=O)Nc4cccc(C(=O)O)c4)C3)[C@H](C)[C@H]12` [ertapenem], the Km in the series with PNGM-1 [7] was 1.9 ± 0.1 µM.

`C[C@@H](O)[C@H]1C(=O)N2C(C(=O)O)=C(SCCN=CN)C[C@H]12` [imipenem]: the Km in the series with PNGM-1 [8] was 2 ± 0.1 µM.

As for `C[C@@H](O)[C@H]1C(=O)N2C(C(=O)O)=C(S[C@@H]3CN[C@H](C(=O)N(C)C)C3)[C@H](C)[C@H]12` [meropenem], in the series with PNGM-1 [9], the Km was 1.9 ± 0.1 µM.

With AIM-1 (Pseudomonas aeruginosa), the Km in [10] was determined as 5.0 ± 0.1 µM; in [11], 3.8 ± 0.1 µM; in [12] it was 4.6 ± 0.1 µM. Moreover, the kcat in [10] is 12.376 ± 0.0001 s⁻¹; in series [11], 11.128 ± 0.0001 s⁻¹; in series [12], 15.409 ± 0.0001 s⁻¹. Also, the specificity constant (kcat/Km) in series [10] turned out to be 2.5e+06 ± 200000 M⁻¹ s⁻¹; in [11], 2.9e+06 ± 200000 M⁻¹ s⁻¹.

With FEZ-1 (Fluoribacter gormanii), in series [10], the Km was 4.6 ± 0.1 µM and the catalytic constant (kcat) came to 0.667 ± 0.001 s⁻¹. For the same compound, in [11], the Km came to 3.5 ± 0.1 µM, the kcat came to 0.763 ± 0.001 s⁻¹ and the specificity constant (kcat/Km) amounted to 220000 ± 10000 M⁻¹ s⁻¹. In addition, in [12], the Km stood at 4.2 ± 0.1 µM, the kcat was found to be 0.773 ± 0.001 s⁻¹ and the specificity constant (kcat/Km) amounted to 180000 ± 10000 M⁻¹ s⁻¹.

Regarding GOB-18 (Elizabethkingia meningoseptica), the Km amounted to 6.3 ± 0.1 µM in series [10], 4.8 ± 0.1 µM in series [11] and 5.7 ± 0.1 µM in series [12]. Besides, the kcat is 6.882 ± 0.002 s⁻¹ in series [10], 6.188 ± 0.003 s⁻¹ in series [11] and 8.568 ± 0.001 s⁻¹ in series [12]. The kcat/Km came out at 1.1e+06 ± 200000 M⁻¹ s⁻¹ in [10], 1.3e+06 ± 200000 M⁻¹ s⁻¹ in [11] and 1.5e+06 ± 100000 M⁻¹ s⁻¹ in series [12].

The term kcat denotes the number of substrate molecules converted per active site and unit of time at saturation. What is called kcat/Km is the turnover number divided by the Michaelis constant.
